# B1: DVL3 (parent)
# chain: HPDPAPFCADNPSELPPPMERTGG
# B2: SAT2 (parent)
# chain: LTEAEGWHFFCFQGEATRKLAGK
# B3: GNB5 (parent)
# chain: DINSVRYYPSGDAFASGSDDATCR
# Variants of: B1
# Test: protein stability index of a GFP-peptide fusion (GPS, HEK-293T) (PSI 1-6); higher = more stable
# Details: c terminus: a fixed tail appended
# 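Also: lentivirally expressed fusions sorted by FACS into six bins by GFP to DsRed ratio, PSI derived from sequencing read proportions per bin multiplied by bin number.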
row,Variant,protein stability index
1,P16M,3.02
2,P16V,2.9
3,P16H,2.58
4,P16W,2.17
5,P16G,3.1
6,P16E,3.09
7,P16S,3.19
8,P16R,2.28
9,P16L,2.42
10,P16C,2.38
11,P16K,2.19
12,P16D,2.9
13,P16A,3.04
14,P16Q,3.59
15,P16I,2.7
16,D3M,3.42
17,D3R,4.13
18,D3V,3.39
19,D3W,2.81
20,G23W,2.07
21,G23V,2.47
22,G23M,2.62
23,G23R,2.89
24,P17C,2.52

row,Variant,protein stability index
1,P17K,2.92
2,P17D,2.93
3,P17H,2.61
4,P17Y,2.86
5,P17M,2.54
6,P17E,3.41
7,P17G,2.6
8,P17W,2.54
9,P17R,2.62
10,P17L,2.76
11,P17V,2.82
12,P17S,2.92
13,P17Q,3.02
14,P17N,2.65
15,P17I,2.63
16,P17F,2.4
17,P17A,2.73
18,C8W,2.74
19,C8E,5.49
20,C8G,4.65
21,C8R,2.62
22,C8V,2.84
23,T22R,2.58
24,T22D,3.31

row,Variant,protein stability index
1,T22L,2.94
2,T22M,2.96
3,T22W,2.22
4,T22E,2.88
5,T22K,2.85
6,T22A,3.02
7,T22G,2.5
8,T22Q,2.78
9,T22V,2.02
10,P2F,4.57
11,P2D,5.12
12,P2T,2.27
13,P2W,3.03
14,P2Y,3.84
15,P2M,2.04
16,P2N,4.74
17,P2S,3.51
18,P2L,1.93
19,P2Q,1.54
20,P2E,4.46
21,P2C,2.28
22,P2G,5.4
23,P2R,4.33
24,P2A,2.08

row,Variant,protein stability index
1,P2K,5.1
2,P2H,3.19
3,E20G,1.73
4,E14G,2.65
5,N11L,2.59
6,G24S,3.1
7,F7R,5.23
8,F7W,2.21
9,P4K,5.4
10,P4C,4.85
11,P4N,5.35
12,P4F,4.71
13,P4Q,5.3
14,P4H,4.84
15,P4M,5.22
16,P4L,4.8
17,P4Y,4.58
18,P4I,4.99
19,P4V,5.14
20,P4D,5.64
21,P4E,5.24
22,P4T,4.9
23,P4W,5.19
24,P4R,4.78

row,Variant,protein stability index
1,P4A,4.6
2,P4S,5.24
3,P4G,4.94
4,A9G,3.27
5,P12E,3.19
6,P12N,2.42
7,P12R,2.95
8,P12L,3.24
9,P12M,3.54
10,P12V,2.3
11,P12K,2.88
12,P12Q,2.86
13,P12W,2.17
14,H1E,5.45
15,H1R,4.98
16,H1L,5.58
17,H1M,4.93
18,H1K,5.2
19,P6Y,2.46
20,P6D,5.21
21,P6M,2.83
22,P6Q,4.12
23,P6K,3.33
24,P6L,2.83

row,Variant,protein stability index
1,P6C,3.01
2,P6G,3.57
3,P6W,3.3
4,P6F,2.48
5,P6S,3.14
6,P6R,2.91
7,P6A,2.69
8,P6N,4.83
9,P6V,2.73
10,P6H,3.46
11,P6T,3.92
12,P6I,3
13,P6E,4.91
14,A5L,2.77
15,A5V,3.62
16,A5S,2.54
17,A5K,2.7
18,A5F,2.58
19,A5D,3.82
20,A5Y,3.11
21,A5Q,3.42
22,A5I,2.77
23,A5N,3.93
24,A5E,3.91

row,Variant,protein stability index
1,A5W,2.41
2,A5C,2.75
3,A5R,2.29
4,A5G,2.87
5,A5M,1.82
6,P18Q,3.42
7,P18S,3.05
8,P18Y,2.61
9,P18A,2.48
10,P18L,2.95
11,P18G,2.79
12,P18E,3.32
13,P18F,2.7
14,P18T,3.12
15,P18D,3.27
16,P18K,2.53
17,P18I,2.82
18,P18W,2.35
19,P18V,3.15
20,P18R,2.8
21,P18C,2.94
22,P18N,3.2
23,P18M,2.68
24,P18H,2.69

# Variants of: B2
# Test: as above
# Details: c terminus: native
row,Variant,protein stability index
1,G22N,2.67
2,G22H,2.48
3,G22Y,2.39
4,G22A,1.5
5,G14T,2.1
6,G14S,1.73
7,F12M,2.5
8,F12Y,2.48
9,F12A,3.56
10,T2N,2.75
11,E15G,2.09
12,E15H,2.13
13,E15N,1.86
14,C11D,3.45
15,Q13G,1.61
16,Q13H,1.56
17,A16D,3.16
18,A16G,2.38
19,E3R,1.43
20,H8F,1.9
21,H8N,3.91
22,W7C,3.87
23,W7F,2.22

row,Variant,protein stability index
1,W7T,4.08
2,W7G,3.63
3,E5V,1.36
4,L20D,2.99
5,L20R,3.66
6,L20N,3.41
7,K23I,2.17
8,K23P,2.41
9,F10T,3.99
10,F10V,2.34
11,F10C,2.56
12,F10P,4.44
13,F10L,2.68
14,G6F,1.79
15,A21T,2.71
16,A21L,1.33
17,A21W,2.34
18,A21I,3.52
19,R18Y,2.21
20,A4D,2.37
21,T17E,2.7
22,T17S,1.48

# Variants of: B3
# Test: as above
# Details: c terminus: a fixed tail appended
row,Variant,protein stability index
1,A13W,3.42
2,A13H,4.02
3,A13V,3.69
4,R6I,3.88
5,R6Q,4.64
6,R6P,4.29
7,R6M,4.04
8,V5Y,3.6
9,V5D,4.41
10,V5G,3.77
11,V5M,3.92
12,V5E,4.61
13,P9M,3.3
14,P9S,4.17
15,P9C,3.17
16,P9T,4.02
17,P9G,4.13
18,D1V,3.58
19,D1K,3.85
20,D1P,3.33
21,D1N,4.37
22,D1F,2.54
23,D1H,3.48
24,D1C,3.44
25,A21K,3.8

row,Variant,protein stability index
1,A21N,4.16
2,A21H,3.62
3,A21I,3.44
4,A21F,3.3
5,A21M,3.44
6,A21R,3.63
7,A21P,4.16
8,R24T,4.41
9,R24N,3.59
10,Y8F,3.82
11,Y8Q,4.77
12,Y8C,4.43
13,Y8T,4.45
14,D12K,3
15,D12N,3.06
16,D12P,3.34
17,D12R,3.33
18,T22R,3.57
19,T22P,3.56
20,T22Y,2.94
21,T22W,3
22,T22N,4.01
23,C23S,4.05
24,C23M,3.62
25,C23R,3.92

row,Variant,protein stability index
1,S16W,3.15
2,S16Q,3.78
3,S16T,3.49
4,S16P,3.88
5,S16L,3.58
6,G17T,3.63
7,G17A,3.74
8,G17P,4.05
9,G17E,4.34
10,G17C,3.66
11,G17L,3.12
12,G17F,2.93
13,S18C,3.88
14,S18G,4.48
15,S18N,4
16,S18E,4.43
17,S18F,3.26
18,S18Q,3.81
19,S4M,4.21
20,S4F,3.48
21,S4V,2.55
22,S4I,3.55
23,S4N,3.55
24,A15H,3.7
25,A15W,3.29

row,Variant,protein stability index
1,A15N,4.12
2,A15E,4.09
3,A15Y,3.23
4,D19V,2.69
5,D19N,3.2
6,D19E,4.15
7,D19M,2.95
8,D19W,3.03
9,S10H,3.65
10,S10Y,3.1
11,S10V,3.73
12,S10E,4.63
13,S10T,3.68
14,S10D,4.32
15,F14Y,4.09
16,F14N,3.8
17,F14V,4.28
18,F14W,3.94
19,F14T,4.75
20,F14C,4.16
21,F14R,3.64
22,G11I,3.59
23,G11S,4.09
24,G11E,4.72
25,G11W,2.91

row,Variant,protein stability index
1,I2M,4.1
2,I2Y,4.32
3,I2A,4.41
4,I2V,3.93
5,I2G,4.54
6,I2R,4.36
7,I2N,4.92
8,I2Q,4.72
9,N3R,4.55
10,N3D,5.08
11,N3Q,4.31
12,N3I,3.57
13,N3P,4.64
14,Y7L,3.61
15,Y7K,4.35
16,Y7Q,4.21
17,Y7A,4.5
18,D20W,2.16
19,D20G,3.61
20,D20L,3.15
21,D20Y,2.6

# From the supplement of paper PMC10567573
